The results in this text go back to IntAct's records for PubMed 16778768.

The chains are these.
B1: High osmolarity signaling protein SHO1 (Saccharomyces cerevisiae), P40073 (parent)
chain: MSISSKIRPTPRKPSRMATDHSFKMKKFYADPFAISSISLAIVSWVIAIGGSISSASTNESFPRFTWWGIVYQFLIICSLMLFYCFDLVDHYRIFITTSIAVAFVYNTNSATNLVYADGPKKAAASAGVILLSIINLIWILYYGGDNASPTNRWIDSFSIKGIRPSPLENSLHRARRRGNRNTTPYQNNVYNDAIRDSGYATQFDGYPQQQPSHTNYVSSTALAGFENTQPNTSEAVNLHLNTLQQRINSASNAKETNDNSNNQTNTNIGNTFDTDFSNGNTETTMGDTLGLYSDIGDDNFIYKAKALYPYDADDDDAYEISFEQNEILQVSDIEGRWWKARRANGETGIIPSNYVQLIDGPEEMHR
partner: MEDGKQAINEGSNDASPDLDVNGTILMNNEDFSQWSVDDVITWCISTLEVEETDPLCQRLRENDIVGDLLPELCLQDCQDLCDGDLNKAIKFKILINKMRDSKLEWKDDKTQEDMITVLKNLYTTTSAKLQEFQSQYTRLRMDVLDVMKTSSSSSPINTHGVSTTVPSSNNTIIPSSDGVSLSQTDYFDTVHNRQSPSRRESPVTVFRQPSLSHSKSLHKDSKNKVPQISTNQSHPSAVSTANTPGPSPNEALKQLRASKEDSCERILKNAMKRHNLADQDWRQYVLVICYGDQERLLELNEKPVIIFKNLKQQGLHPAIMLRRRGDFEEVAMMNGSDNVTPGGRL
B2: High osmolarity signaling protein SHO1 (Saccharomyces cerevisiae), P40073 (parent)
chain: B1 chain
partner: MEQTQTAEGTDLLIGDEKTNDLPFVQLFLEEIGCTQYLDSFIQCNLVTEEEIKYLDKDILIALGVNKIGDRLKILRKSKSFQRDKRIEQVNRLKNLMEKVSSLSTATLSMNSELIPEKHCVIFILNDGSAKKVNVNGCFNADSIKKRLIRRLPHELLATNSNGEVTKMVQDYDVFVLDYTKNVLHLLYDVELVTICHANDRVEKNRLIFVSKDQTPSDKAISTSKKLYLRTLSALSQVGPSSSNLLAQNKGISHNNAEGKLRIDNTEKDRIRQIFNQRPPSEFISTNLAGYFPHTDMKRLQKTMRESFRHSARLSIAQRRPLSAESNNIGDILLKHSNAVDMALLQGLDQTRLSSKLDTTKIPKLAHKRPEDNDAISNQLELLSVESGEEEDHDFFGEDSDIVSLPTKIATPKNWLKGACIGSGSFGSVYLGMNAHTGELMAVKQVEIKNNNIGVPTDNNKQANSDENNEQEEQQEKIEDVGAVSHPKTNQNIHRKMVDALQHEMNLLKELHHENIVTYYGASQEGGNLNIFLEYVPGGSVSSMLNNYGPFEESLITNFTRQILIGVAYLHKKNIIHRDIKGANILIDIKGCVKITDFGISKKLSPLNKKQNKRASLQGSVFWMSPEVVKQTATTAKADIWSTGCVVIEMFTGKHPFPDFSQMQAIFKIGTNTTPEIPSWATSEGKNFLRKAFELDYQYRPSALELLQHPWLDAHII

Variants of B1 are the subject of one assay. The following applies: with ste50_yeast STE50, P25344.
Consider R342G, for which the “effect of a mutation on the interaction” value is “increasing interaction”.
Take G346S: the “effect of a mutation on the interaction” value is on record as “increasing interaction”.

The variants in another assay derive from B2. The following applies: with ste11_yeast STE11, P23561.
For the variant R342G, the “effect of a mutation on the interaction” value is given as “increasing interaction”.
Consider G346S, for which the “effect of a mutation on the interaction” value was “increasing interaction”.
